Series [1] concerns HeLa Kyoto. Nature of the series: solubility in G1/S (NP-40 vs SDS abundance) (log2 ratio); higher = more soluble. As to conditions: cell cycle stage: G1/S.
Series [2] relates to HeLa Kyoto. Description: melting temperature (median over replicates), in situ; higher = more thermally stable.
Series [3] has as its system HeLa Kyoto. Description: solubility change mitosis vs G1/S (difference of NP-40 vs SDS log2 ratios) (log2 ratio difference); higher = more soluble in mitosis.
Series [4] has as its system HeLa Kyoto. Nature of the series: thermal stability score vs G1/S (z-score of summed log2 fold changes over temperatures); higher = more thermally stable than in G1/S.
Where [5] appears, read: cell cycle stage: early G1 (4.5 h after nocodazole release).
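Throughout, for melting temperature (median over replicates), in situ: HeLa Kyoto cells synchronized by double thymidine or nocodazole block, proteins quantified by TMT10plex mass spectrometry, three independent biological replicates.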
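Throughout, for solubility change mitosis vs G1/S (difference of NP-40 vs SDS log2 ratios): synchronized HeLa Kyoto cells (double thymidine block for G1/S, nocodazole release for mitosis), protein amounts in NP-40 versus SDS lysates quantified by mass spectrometry, three biological replicates.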
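Throughout, for solubility in G1/S (NP-40 vs SDS abundance): HeLa Kyoto cells arrested at G1/S by double thymidine block, proteins quantified by TMT10plex mass spectrometry in mild NP-40 versus SDS extracts, three biological replicates.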
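Throughout, for thermal stability score vs G1/S (z-score of summed log2 fold changes over temperatures): synchronized HeLa Kyoto cells, proteins quantified by TMT10plex mass spectrometry, three biological replicates, mitosis taken 0.5 h after nocodazole release, G1/S directly after double thymidine block.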

As to “MSEVTRSLLQRWGASFRRGADFDSWGQLVEAIDEYQILARHLQKEAQAQHNNSEFTEEQKKTIGKIATCLELRSAALQSTQSQEEFKLEDLKKLEPILKNILTYNKEFPFDVQPVPLRRILAPGEEENLEFEEDEEEGGAGAGSPDSFPARVPGTLLPRLPSEPGMTLLTIRIEKIGLKDAGQCIDPYITVSVKDLNGIDLTPVQDTPVASRKEDTYVHFNVDIELQKHVEKLTKGAAIFFEFKHYKPKKRFTSTKCFAFMEMDEIKPGPIVIELYKKPTDFKRKKLQLLTKKPLYLHLHQTLHKE [AIDA]”, the “solubility in G1/S (log2)” value in the series with HeLa Kyoto [1] worked out at 0.32. Further, the values for the melting temperature in the series on HeLa Kyoto [2] (cell cycle stage: G1/S) and in the series with HeLa Kyoto [2] (cell cycle stage: mitosis) were 50.9 °C and 50.5 °C, respectively. Also, the “solubility change mitosis (log2)” value in the series with HeLa Kyoto [3] came out at 0.0508. Also, the thermal stability score in the series on HeLa Kyoto [4] (setting [5]) was -0.484; in the series on HeLa Kyoto [4] (cell cycle stage: mitosis), -0.48.

In the case of “MVDPVGFAEAWKAQFPDSEPPRMELRSVGDIEQELERCKASIRRLEQEVNQERFRMIYLQTLLAKEKKSYDRQRWGFRRAAQAPDGASEPRASASRPQPAPADGADPPPAEEPEARPDGEGSPGKARPGTARRPGAAASGERDDRGPPASVAALRSNFERIRKGHGQPGADAEKPFYVNVEFHHERGLVKVNDKEVSDRISSLGSQAMQMERKKSQHGAGSSVGDASRPPYRGRSSESSCGVDGDYEDAELNPRFLKDNLIDANGGSRPPWPPLEYQPYQSIYVGGMMEGEGKGPLLRSQSTSEQEKRLTWPRRSYSPRSFEDCGGGYTPDCSSNENLTSSEEDFSSGQSSRVSPSPTTYRMFRDKSRSPSQNSQQSFDSSSPPTPQCHKRHRHCPVVVSEATIVGVRKTGQIWPNDGEGAFHGDADGSFGTPPGYGCAADRAEEQRRHQDGLPYIDDSPSSSPHLSSKGRGSRDALVSGALESTKASELDLEKGLEMRKWVLSGILASEETYLSHLEALLLPMKPLKAAATTSQPVLTSQQIETIFFKVPELYEIHKEFYDGLFPRVQQWSHQQRVGDLFQKLASQLGVYRAFVDNYGVAMEMAEKCCQANAQFAEISENLRARSNKDAKDPTTKNSLETLLYKPVDRVTRSTLVLHDLLKHTPASHPDHPLLQDALRISQNFLSSINEEITPRRQSMTVKKGEHRQLLKDSFMVELVEGARKLRHVFLFTDLLLCTKLKKQSGGKTQQYDCKWYIPLTDLSFQMVDELEAVPNIPLVPDEELDALKIKISQIKNDIQREKRANKGSKATERLKKKLSEQESLLLLMSPSMAFRVHSRNGKSYTFLISSDYERAEWRENIREQQKKCFRSFSLTSVELQMLTNSCVKLQTVHSIPLTINKEDDESPGLYGFLNVIVHSATGFKQSSNLYCTLEVDSFGYFVNKAKTRVYRDTAEPNWNEEFEIELEGSQTLRILCYEKCYNKTKIPKEDGESTDRLMGKGQVQLDPQALQDRDWQRTVIAMNGIEVKLSVKFNSREFSLKRMPSRKQTGVFGVKIAVVTKRERSKVPYIVRQCVEEIERRGMEEVGIYRVSGVATDIQALKAAFDVNNKDVSVMMSEMDVNAIAGTLKLYFRELPEPLFTDEFYPNFAEGIALSDPVAKESCMLNLLLSLPEANLLTFLFLLDHLKRVAEKEAVNKMSLHNLATVFGPTLLRPSEKESKLPANPSQPITMTDSWSLEVMSQVQVLLYFLQLEAIPAPDSKRQSILFSTEV [BCR]”, the “solubility in G1/S (log2)” value with HeLa Kyoto [1] is -0.109. The figures for the melting temperature in the series with HeLa Kyoto [2] (cell cycle stage: G1/S) and in the series on HeLa Kyoto [2] (cell cycle stage: mitosis) were 49 °C and 49.2 °C, respectively. In addition, the “solubility change mitosis (log2)” value with HeLa Kyoto [3] was -0.114. Besides, the figures for the thermal stability score with HeLa Kyoto [4] (setting [5]) and in the series with HeLa Kyoto [4] (cell cycle stage: mitosis) were 0.827 and 1.59, respectively.

On to FLAD1, for which the “solubility in G1/S (log2)” value in the series on HeLa Kyoto [1] was 0.272. Moreover, the melting temperature in the series with HeLa Kyoto [2] (cell cycle stage: G1/S) is 51.8 °C; in the series with HeLa Kyoto [2] (cell cycle stage: mitosis), 51.6 °C. Besides, the “solubility change mitosis (log2)” value in the series on HeLa Kyoto [3] was -0.111. Besides, the thermal stability score is -0.00796 in the series on HeLa Kyoto [4] (setting [5]) and -0.288 with HeLa Kyoto [4] (cell cycle stage: mitosis).

Take “MTEADVNPKAYPLADAHLTKKLLDLVQQSCNYKQLRKGANEATKTLNRGISEFIVMAADAEPLEIILHLPLLCEDKNVPYVFVRSKQALGRACGVSRPVIACSVTIKEGSQLKQQIQSIQQSIERLLV [SNU13]”: the “solubility in G1/S (log2)” value in the series with HeLa Kyoto [1] was -0.625. The melting temperature was found to be 54.6 °C with HeLa Kyoto [2] (cell cycle stage: G1/S) and 53 °C in the series with HeLa Kyoto [2] (cell cycle stage: mitosis). Moreover, the “solubility change mitosis (log2)” value in the series with HeLa Kyoto [3] is 1.04. Also, the thermal stability score in the series with HeLa Kyoto [4] (setting [5]) was -3.84; with HeLa Kyoto [4] (cell cycle stage: mitosis), -7.97.

Consider “MWSPEREAEAPAGGDPAGLLPPEWEEDEERMSFLFSAFKRSREVNSTDWDSKMGFWAPLVLSHSRRQGVVRLRLRDLQEAFQRKGSVPLGLATVLQDLLRRGELQRESDFMASVDSSWISWGVGVFLLKPLKWTLSNMLGDNKVPAEEVLVAVELLKEKAEEVYRLYQNSPLSSHPVVALSELSTLCANSCPDERTFYLVLLQLQKEKRVTVLEQNGEKIVKFARGPRAKVSPVNDVDVGVYQLMQSEQLLSRKVESLSQEAERCKEEARRACRAGKKQLALRSLKAKQRTEKRIEALHAKLDTVQGILDRIYASQTDQMVFNAYQAGVGALKLSMKDVTVEKAESLVDQIQELCDTQDEVSQTLAGGVTNGLDFDSEELEKELDILLQDTTKEPLDLPDNPRNRHFTNSVPNPRISDAELEAELEKLSLSEGGLVPSSKSPKRQLEPTLKPL [CHMP7]”, for which, in the series on HeLa Kyoto [1], the “solubility in G1/S (log2)” value was 0.221. The melting temperature amounted to 49.2 °C in the series on HeLa Kyoto [2] (cell cycle stage: G1/S) and 48.9 °C in the series with HeLa Kyoto [2] (cell cycle stage: mitosis). Further, the “solubility change mitosis (log2)” value in the series on HeLa Kyoto [3] was -0.0049. In addition, the values for the thermal stability score in the series on HeLa Kyoto [4] (setting [5]) and with HeLa Kyoto [4] (cell cycle stage: mitosis) were 0.579 and 1.08, respectively.
